Test results published in patent publication US20230038638A1, “COMPLEMENT FACTOR I-RELATED COMPOSITIONS AND METHODS” (published 2023).

Assays:
human C4b (human) = biological target: T1, human C4b (human) (UniProt P0C0L4)
T1 sequence: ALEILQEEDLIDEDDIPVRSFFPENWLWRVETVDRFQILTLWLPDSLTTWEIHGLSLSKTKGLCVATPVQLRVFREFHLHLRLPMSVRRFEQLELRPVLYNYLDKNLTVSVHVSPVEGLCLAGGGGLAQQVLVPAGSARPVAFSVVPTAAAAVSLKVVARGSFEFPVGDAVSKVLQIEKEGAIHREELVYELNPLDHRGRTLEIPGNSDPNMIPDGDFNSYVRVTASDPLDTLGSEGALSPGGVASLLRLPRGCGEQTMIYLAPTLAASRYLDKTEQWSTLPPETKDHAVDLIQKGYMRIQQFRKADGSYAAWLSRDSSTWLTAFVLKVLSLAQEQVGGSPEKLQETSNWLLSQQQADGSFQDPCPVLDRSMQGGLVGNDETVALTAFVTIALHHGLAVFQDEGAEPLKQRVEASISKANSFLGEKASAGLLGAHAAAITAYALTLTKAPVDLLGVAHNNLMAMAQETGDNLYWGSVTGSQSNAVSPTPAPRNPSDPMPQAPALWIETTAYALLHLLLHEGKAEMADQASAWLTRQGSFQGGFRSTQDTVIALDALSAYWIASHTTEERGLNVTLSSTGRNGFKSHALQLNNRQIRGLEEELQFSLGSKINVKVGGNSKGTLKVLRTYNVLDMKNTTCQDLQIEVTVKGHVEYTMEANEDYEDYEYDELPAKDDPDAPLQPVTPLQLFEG

[1] = biological target: soluble human C3b (human) (UniProt P01024)

Q: For CFI-HSA P535W (enzyme), which C4b Screen Ref Fold (fold of CFI-HSA wild type) (human C4b (human)) is on record?
A: 0.14

Q: And the iC3b Screen Ref Fold (fold of CFI-HSA wild type) [1]?
A: 0.29

Q: “CFI-HSA H362T; V463S; R456I; S343R (enzyme)” was tested. Which C4b Screen Ref Fold (fold of CFI-HSA wild type) (human C4b (human)) did it give?
A: 0.13

Q: And the iC3b Screen Ref Fold (fold of CFI-HSA wild type) [1]?
A: -0.02

Q: For CFI-HSA variant H383G (enzyme), which C4b Screen Ref Fold (fold of CFI-HSA wild type) (human C4b (human)) is on record?
A: -0.02

Q: And the iC3b Screen Ref Fold (fold of CFI-HSA wild type) [1]?
A: 0.02

Q: How did the C4b Screen Ref Fold (fold of reference) (human C4b (human)) turn out when CFI-HSA variant N531P (enzyme) was run?
A: 0.08

Q: And the iC3b Screen Ref Fold (fold of reference) [1]?
A: -0.01

Q: What does the source list for CFI-HSA variant N52Q; N159Q (enzyme)?
A: C4b Screen Ref Fold (fold of CFI-HSA wild type) (human C4b (human)): 0.56; iC3b Screen Ref Fold (fold of CFI-HSA wild type) [1]: 1.39

Q: CFI-HSA Y408L; E457G; F464Y (enzyme) was tested. Which C4b Screen Ref Fold (fold of CFI-HSA wild type) (human C4b (human)) did it give?
A: 5.57

Q: What about the iC3b Screen Ref Fold (fold of CFI-HSA wild type) [1] of the same substance?
A: 1.13

Q: How did the C4b Screen Ref Fold (fold of CFI-HSA wild type) (human C4b (human)) turn out when CFI-HSA H362T; R456I; S343R (enzyme) was run?
A: 0.08

Q: And the iC3b Screen Ref Fold (fold of CFI-HSA wild type) [1]?
A: -0.01

Q: Which results are given for CFI-HSA variant Y408F; N531M (enzyme)?
A: C4b Screen Ref Fold (fold of CFI-HSA wild type) (human C4b (human)): 1.77; iC3b Screen Ref Fold (fold of CFI-HSA wild type) [1]: 1.92

Q: How did the C4b Screen Ref Fold (fold of reference) (human C4b (human)) turn out when CFI-HSA variant T346R (enzyme) was run?
A: 0.54

Q: And the iC3b Screen Ref Fold (fold of reference) [1]?
A: 0.95

Q: For CFI-HSA variant E461P (enzyme), which C4b Screen Ref Fold (fold of reference) (human C4b (human)) is on record?
A: -0.01

Q: And the iC3b Screen Ref Fold (fold of reference) [1]?
A: 0.02

Q: With CFI-HSA variant D425K; S507A (enzyme) as the substance, how does the C4b Screen Ref Fold (fold of CFI-HSA wild type) (human C4b (human)) read?
A: 0.01

Q: What about the iC3b Screen Ref Fold (fold of CFI-HSA wild type) [1] of the same substance?
A: -0.03

Q: Which C4b Screen Ref Fold (fold of reference) (human C4b (human)) does the source give for “CFI-HSA variant G469L; R456N; E457T; K458A (enzyme)” here?
A: -0.07

Q: What about the iC3b Screen Ref Fold (fold of reference) [1] of the same substance?
A: 0

Q: How did the C4b Screen Ref Fold (fold of reference) (human C4b (human)) turn out when CFI-HSA variant E461N (enzyme) was run?
A: 2.52

Q: What about the iC3b Screen Ref Fold (fold of reference) [1] of the same substance?
A: 1.15

Q: For “CFI-HSA-FH_CCP1-4 fusion, Y408L; N531G; GGSSGG (SEQ ID NO: 6); CCP_1-4 (enzyme)”, which C4b Screen Ref Fold (fold of reference) (human C4b (human)) is on record?
A: 1.4

Q: What about the iC3b Screen Ref Fold (fold of reference) [1] of the same substance?
A: 0.05

Q: For CFI-HSA variant F537K; K504R (enzyme), which C4b Screen Ref Fold (fold of CFI-HSA wild type) (human C4b (human)) is on record?
A: 0.11

Q: And the iC3b Screen Ref Fold (fold of CFI-HSA wild type) [1]?
A: 1.06

Q: For CFI-HSA variant K418G (enzyme), which C4b Screen Ref Fold (fold of reference) (human C4b (human)) is on record?
A: 0.69

Q: And the iC3b Screen Ref Fold (fold of reference) [1]?
A: 0.39

Q: For “CFI-HSA variant E416A; E457G; E461Q; R462K; F464Y; N531G (enzyme)”, which C4b Screen Ref Fold (fold of CFI-HSA wild type) (human C4b (human)) is on record?
A: 3.68

Q: What about the iC3b Screen Ref Fold (fold of CFI-HSA wild type) [1] of the same substance?
A: 3.21

Q: For “CFI-HSA H362T; V463S; R456I; D459W; S343K (enzyme)”, which C4b Screen Ref Fold (fold of CFI-HSA wild type) (human C4b (human)) is on record?
A: 0.04

Q: What about the iC3b Screen Ref Fold (fold of CFI-HSA wild type) [1] of the same substance?
A: -0.02

Q: Which C4b Screen Ref Fold (fold of CFI-HSA wild type) (human C4b (human)) does the source give for CFI-HSA variant Y408M; P558S (enzyme) here?
A: 0.06

Q: What about the iC3b Screen Ref Fold (fold of CFI-HSA wild type) [1] of the same substance?
A: 1.13

Q: CFI-HSA variant N531R (enzyme) was tested. Which C4b Screen Ref Fold (fold of reference) (human C4b (human)) did it give?
A: 0.58

Q: What about the iC3b Screen Ref Fold (fold of reference) [1] of the same substance?
A: 0.75

Q: Which C4b Screen Ref Fold (fold of CFI-HSA wild type) (human C4b (human)) does the source give for CFI-HSA variant E530F; F537K (enzyme) here?
A: 0

Q: And the iC3b Screen Ref Fold (fold of CFI-HSA wild type) [1]?
A: 0.03

Q: For CFI-HSA variant N531T (enzyme), which C4b Screen Ref Fold (fold of reference) (human C4b (human)) is on record?
A: 0.31

Q: What about the iC3b Screen Ref Fold (fold of reference) [1] of the same substance?
A: 0.19

Q: For CFI-HSA variant Y408M; K504R (enzyme), which C4b Screen Ref Fold (fold of CFI-HSA wild type) (human C4b (human)) is on record?
A: 0.09

Q: And the iC3b Screen Ref Fold (fold of CFI-HSA wild type) [1]?
A: 0.83

Q: Which results are given for CFI-HSA F464P (enzyme)?
A: C4b Screen Ref Fold (fold of CFI-HSA wild type) (human C4b (human)): 0.15; iC3b Screen Ref Fold (fold of CFI-HSA wild type) [1]: -0.01

Q: What does the source list for CFI-HSA D425E (enzyme)?
A: C4b Screen Ref Fold (fold of CFI-HSA wild type) (human C4b (human)): 1.75; iC3b Screen Ref Fold (fold of CFI-HSA wild type) [1]: 1.52

Q: Which C4b Screen Ref Fold (fold of reference) (human C4b (human)) does the source give for CFI-HSA variant P558G (enzyme) here?
A: 0.4

Q: And the iC3b Screen Ref Fold (fold of reference) [1]?
A: 1.21

Q: CFI-HSA variant E530K (enzyme) was tested. Which C4b Screen Ref Fold (fold of reference) (human C4b (human)) did it give?
A: 0.19

Q: And the iC3b Screen Ref Fold (fold of reference) [1]?
A: 0.96

Q: With CFI-HSA variant E461W (enzyme) as the substance, how does the C4b Screen Ref Fold (fold of reference) (human C4b (human)) read?
A: 0.8

Q: And the iC3b Screen Ref Fold (fold of reference) [1]?
A: 0.67

Q: Which results are given for “CFI-HSA variant R557A; N531D; Y403F; K504Y; E457G; E461Q (enzyme)”?
A: C4b Screen Ref Fold (fold of CFI-HSA wild type) (human C4b (human)): 3.51; iC3b Screen Ref Fold (fold of CFI-HSA wild type) [1]: 0.42

Q: How did the C4b Screen Ref Fold (fold of CFI-HSA wild type) (human C4b (human)) turn out when CFI-HSA K534L (enzyme) was run?
A: 3.12

Q: What about the iC3b Screen Ref Fold (fold of CFI-HSA wild type) [1] of the same substance?
A: 0.87

Q: Which results are given for CFI-HSA D506M (enzyme)?
A: C4b Screen Ref Fold (fold of CFI-HSA wild type) (human C4b (human)): 0.05; iC3b Screen Ref Fold (fold of CFI-HSA wild type) [1]: 0.01

Q: What does the source list for CFI-HSA Y408L; E461Q; F464Y (enzyme)?
A: C4b Screen Ref Fold (fold of CFI-HSA wild type) (human C4b (human)): 4.83; iC3b Screen Ref Fold (fold of CFI-HSA wild type) [1]: 1.51

Q: With CFI-HSA variant I322T (enzyme) as the substance, how does the C4b Screen Ref Fold (fold of reference) (human C4b (human)) read?
A: 0.03

Q: What about the iC3b Screen Ref Fold (fold of reference) [1] of the same substance?
A: 0.01
